Our source for the NAD-dependent deacetylase activity values is patent US20040091953.

The test system of the data set is T1, peptide corresponding to the first 22 amino acids of histone 4, chemically acetylated in vitro.
T1 sequence: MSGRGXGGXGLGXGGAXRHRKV

Regarding hSIRT6, the NAD-dependent deacetylase activity result is “showed no detectable activity”.
